From IntAct's records for PubMed 23809763 come the findings set out here.

First the molecules themselves.
B1: R-spondin-1 (Homo sapiens), Q2MKA7 (parent)
chain: MRLGLCVVALVLSWTHLTISSRGIKGKRQRRISAEGSQACAKGCELCSEVNGCLKCSPKLFILLERNDIRQVGVCLPSCPPGYFDARNPDMNKCIKCKIEHCEACFSHNFCTKCKEGLYLHKGRCYPACPEGSSAANGTMECSSPAQCEMSEWSPWGPCSKKQQLCGFRRGSEERTRRVLHAPVGDHAACSDTKETRRCTVRRVPCPEGQKRRKGGQGRRENANRNLARKESKEAGAGSRRRKGQQQQQQQGTVGPLTSAGPA
partner: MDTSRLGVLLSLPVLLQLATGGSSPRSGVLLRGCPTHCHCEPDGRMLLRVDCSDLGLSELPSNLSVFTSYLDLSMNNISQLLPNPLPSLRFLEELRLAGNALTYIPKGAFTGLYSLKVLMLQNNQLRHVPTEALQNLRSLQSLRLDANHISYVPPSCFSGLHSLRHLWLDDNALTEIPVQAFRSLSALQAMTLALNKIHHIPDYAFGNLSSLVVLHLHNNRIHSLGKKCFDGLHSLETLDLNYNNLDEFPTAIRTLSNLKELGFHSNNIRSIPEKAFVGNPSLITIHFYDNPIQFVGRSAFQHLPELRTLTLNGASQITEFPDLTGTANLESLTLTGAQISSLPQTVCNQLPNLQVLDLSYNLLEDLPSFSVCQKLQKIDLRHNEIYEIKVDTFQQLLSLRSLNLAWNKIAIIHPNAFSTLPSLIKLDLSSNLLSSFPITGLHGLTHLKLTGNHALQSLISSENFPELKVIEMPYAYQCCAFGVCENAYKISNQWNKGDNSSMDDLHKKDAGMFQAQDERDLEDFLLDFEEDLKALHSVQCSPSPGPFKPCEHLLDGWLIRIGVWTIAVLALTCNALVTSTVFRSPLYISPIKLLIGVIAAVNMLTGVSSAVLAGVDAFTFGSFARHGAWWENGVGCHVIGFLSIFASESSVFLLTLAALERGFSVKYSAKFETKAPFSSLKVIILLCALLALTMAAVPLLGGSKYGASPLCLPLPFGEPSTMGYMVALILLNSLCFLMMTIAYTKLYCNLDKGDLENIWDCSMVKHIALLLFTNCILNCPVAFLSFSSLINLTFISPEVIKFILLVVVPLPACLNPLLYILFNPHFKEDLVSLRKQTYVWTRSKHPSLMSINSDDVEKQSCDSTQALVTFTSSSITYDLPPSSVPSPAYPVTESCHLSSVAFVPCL

This assay covers variants of B1. The note with it: with lgr5_human LGR5, O75473.
Turning to MRLGLCVVALVLSWTHLTISSRGIKGKRQRRISAEGSQACAKGCELCSEVNGCLKCSPKLFILLERNDIAQVGVCLPSCPPGYFDARNPDMNKCIKCKIEHCEACFSHNFCTKCKEGLYLHKGRCYPACPEGSSAANGTMECSSPAQCEMSEWSPWGPCSKKQQLCGFRRGSEERTRRVLHAPVGDHAACSDTKETRRCTVRRVPCPEGQKRRKGGQGRRENANRNLARKESKEAGAGSRRRKGQQQQQQQGTVGPLTSAGPA [R70A], the “effect of a mutation on the interaction” value is recorded as “decreasing interaction strength”.

Regarding MRLGLCVVALVLSWTHLTISSRGIKGKRQRRISAEGSQACAKGCELCSEVNGCLKCSPKLFILLERNDICQVGVCLPSCPPGYFDARNPDMNKCIKCKIEHCEACFSHNFCTKCKEGLYLHKGRCYPACPEGSSAANGTMECSSPAQCEMSEWSPWGPCSKKQQLCGFRRGSEERTRRVLHAPVGDHAACSDTKETRRCTVRRVPCPEGQKRRKGGQGRRENANRNLARKESKEAGAGSRRRKGQQQQQQQGTVGPLTSAGPA [R70C], the “effect of a mutation on the interaction” value is reported as “with no effect”.

MRLGLCVVALVLSWTHLTISSRGIKGKRQRRISAEGSQACAKGCELCSEVNGCLKCSPKLFILLERNDIEQVGVCLPSCPPGYFDARNPDMNKCIKCKIEHCEACFSHNFCTKCKEGLYLHKGRCYPACPEGSSAANGTMECSSPAQCEMSEWSPWGPCSKKQQLCGFRRGSEERTRRVLHAPVGDHAACSDTKETRRCTVRRVPCPEGQKRRKGGQGRRENANRNLARKESKEAGAGSRRRKGQQQQQQQGTVGPLTSAGPA [R70E]: the “effect of a mutation on the interaction” value is “with no effect”.

MRLGLCVVALVLSWTHLTISSRGIKGKRQRRISAEGSQACAKGCELCSEVNGCLKCSPKLFILLERNDIRQVRVCLPSCPPGYFDARNPDMNKCIKCKIEHCEACFSHNFCTKCKEGLYLHKGRCYPACPEGSSAANGTMECSSPAQCEMSEWSPWGPCSKKQQLCGFRRGSEERTRRVLHAPVGDHAACSDTKETRRCTVRRVPCPEGQKRRKGGQGRRENANRNLARKESKEAGAGSRRRKGQQQQQQQGTVGPLTSAGPA [G73R]: the “effect of a mutation on the interaction” value was “with no effect”.

In the case of MRLGLCVVALVLSWTHLTISSRGIKGKRQRRISAEGSQACAKGCELCSEVNGCLKCSPKLFILLERNDIRQVEVCLPSCPPGYFDARNPDMNKCIKCKIEHCEACFSHNFCTKCKEGLYLHKGRCYPACPEGSSAANGTMECSSPAQCEMSEWSPWGPCSKKQQLCGFRRGSEERTRRVLHAPVGDHAACSDTKETRRCTVRRVPCPEGQKRRKGGQGRRENANRNLARKESKEAGAGSRRRKGQQQQQQQGTVGPLTSAGPA [G73E], the “effect of a mutation on the interaction” value is “with no effect”.

Take MRLGLCVVALVLSWTHLTISSRGIKGKRQRRISAEGSQACAKGCELCSEVNGCLKCSPKLFILLEANDIRQVGVCLPSCPPGYFDARNPDMNKCIKCKIEHCEACFSHNFCTKCKEGLYLHKGRCYPACPEGSSAANGTMECSSPAQCEMSEWSPWGPCSKKQQLCGFRRGSEERTRRVLHAPVGDHAACSDTKETRRCTVRRVPCPEGQKRRKGGQGRRENANRNLARKESKEAGAGSRRRKGQQQQQQQGTVGPLTSAGPA [R66A]: the “effect of a mutation on the interaction” value is reported as “with no effect”.

With MRLGLCVVALVLSWTHLTISSRGIKGKRQRRISAEGSQACAKGCELCSEVNGCLKCSPKLFILLEWNDIRQVGVCLPSCPPGYFDARNPDMNKCIKCKIEHCEACFSHNFCTKCKEGLYLHKGRCYPACPEGSSAANGTMECSSPAQCEMSEWSPWGPCSKKQQLCGFRRGSEERTRRVLHAPVGDHAACSDTKETRRCTVRRVPCPEGQKRRKGGQGRRENANRNLARKESKEAGAGSRRRKGQQQQQQQGTVGPLTSAGPA [R66W], the “effect of a mutation on the interaction” value was “with no effect”.

Take MRLGLCVVALVLSWTHLTISSRGIKGKRQRRISAEGSQACAKGCELCSEVNGCLKCSPKLFILLERNDIRQVGVCLPSCPPEYFDARNPDMNKCIKCKIEHCEACFSHNFCTKCKEGLYLHKGRCYPACPEGSSAANGTMECSSPAQCEMSEWSPWGPCSKKQQLCGFRRGSEERTRRVLHAPVGDHAACSDTKETRRCTVRRVPCPEGQKRRKGGQGRRENANRNLARKESKEAGAGSRRRKGQQQQQQQGTVGPLTSAGPA [G82E]: the “effect of a mutation on the interaction” value is recorded as “with no effect”.

Take MRLGLCVVALVLSWTHLTISSRGIKGKRQRRISAEGSQACAKGCELCSEVNGCLKCSPKLFILLERNDIRRVGVCLPSCPPGYFDARNPDMNKCIKCKIEHCEACFSHNFCTKCKEGLYLHKGRCYPACPEGSSAANGTMECSSPAQCEMSEWSPWGPCSKKQQLCGFRRGSEERTRRVLHAPVGDHAACSDTKETRRCTVRRVPCPEGQKRRKGGQGRRENANRNLARKESKEAGAGSRRRKGQQQQQQQGTVGPLTSAGPA [Q71R]: the “effect of a mutation on the interaction” value is listed as “with no effect”.

Turning to MRLGLCVVALVLSWTHLTISSRGIKGKRQRRISAEGSQACAKGCELCSEVNGCLKCSPKLFILLERNDIREVGVCLPSCPPGYFDARNPDMNKCIKCKIEHCEACFSHNFCTKCKEGLYLHKGRCYPACPEGSSAANGTMECSSPAQCEMSEWSPWGPCSKKQQLCGFRRGSEERTRRVLHAPVGDHAACSDTKETRRCTVRRVPCPEGQKRRKGGQGRRENANRNLARKESKEAGAGSRRRKGQQQQQQQGTVGPLTSAGPA [Q71E], the “effect of a mutation on the interaction” value is given as “with no effect”.

For the variant MRLGLCVVALVLSWTHLTISSRGIKGKRQRRISAEGSQACAKGCELCSEVNGCLKCSPKLFILLERNDIRQVGVCLPSCPPGYFDARNPDMNKCIKCKIEHCEACESHNFCTKCKEGLYLHKGRCYPACPEGSSAANGTMECSSPAQCEMSEWSPWGPCSKKQQLCGFRRGSEERTRRVLHAPVGDHAACSDTKETRRCTVRRVPCPEGQKRRKGGQGRRENANRNLARKESKEAGAGSRRRKGQQQQQQQGTVGPLTSAGPA [F106E], the “effect of a mutation on the interaction” value was “disrupting interaction strength”.

MRLGLCVVALVLSWTHLTISSRGIKGKRQRRISAEGSQACAKGCELCSEVNGCLKCSPKLFILLERNDIRQVGVCLPSCPPGYFDARNPDMNKCIKCKIEHCEACFSHNECTKCKEGLYLHKGRCYPACPEGSSAANGTMECSSPAQCEMSEWSPWGPCSKKQQLCGFRRGSEERTRRVLHAPVGDHAACSDTKETRRCTVRRVPCPEGQKRRKGGQGRRENANRNLARKESKEAGAGSRRRKGQQQQQQQGTVGPLTSAGPA [F110E]: the “effect of a mutation on the interaction” value was “disrupting interaction strength”.
